The results in this text go back to patent US10858688B2, “Observation method using binding and dissociation probe” (KYOTO UNIVERSITY, priority 2015, dated 2020).

In assay [1] the test system is microtubule. Put plainly: Washability test of probe candidates. The assay is classed as cell-based, Xenopus laevis. The arrangement: key: “washability” is positive (P) when above criterion (2) is met. The conditions noted are these: speckles equal to or less than about 10% after switching imaging solution 10 to 20 times. As to the method: (§1) (2) It is possible to wash and remove a probe after SiMS imaging (imaging step);
(§2) The […] of the above (2), whose result is shown in table 1, was performed in the following procedures. […] This switching of imaging solution was conducted slowly so that the observation position would not shift. Next, an imaging solution not containing a probe and not containing the active oxygen-scavenging mix was switched 10 to 20 times. After the switching, for confirmation, for an XCT cell sample in the observation chamber, speckle images of 10 frames were picked up under a similar condition to that of the localization test described in the previous paragraph, and when the number of speckles confirmed in the speckle images (i.e., the number of probes that had bound) became sufficiently smaller (equal to or less than about 10%) than the number of the speckles in the speckle images before the washing operation, washing was determined to be possible and the result was treated as P (positive).

Assay [2] deals with microtubule. Put plainly: IRIS image test (reconstruction image). As to conditions: reconstruction from 10000 frames with DAOSTORM
The arrangement: key: “IRIS image” is positive (P) when above criterion (3) is met. The format is cell-based, Xenopus laevis. As to the method:
(§3) […] It is possible to reconstruct an image of a target substance by integrating the central positions of the respective speckles. The IRIS image test of the above (3) whose result is described in table 1 was performed in the following procedures. By using all the speckle images of 10000 frames picked up in the localization test, the central point of a probe that has bound to a target in each frame of the speckle images was determined with nanometer accuracy by using DAOSTORM. By adding a large number of pieces of central point information in the fluorescence images of 10000 frames, a reconstruction image (observation image) was generated. Whether or not a distribution of a target molecule was able to be observed in that reconstruction image was determined, and when a distribution of a target molecule was observed, the result was treated as P (positive).

Assay [3] relates to microtubule. Put plainly: Measurement of binding half-life of probe-target complex. Also on record: species or system Xenopus laevis. As to conditions: fixed XTC cell, single exponential fit. The text has this: (§4) A probe and a target substance have the following binding characteristics. […] The above half-life herein is preferably a half-life of a probe-target complex formed by binding between a probe and a target substance in a case when a medium containing a probe and a sample containing a target substance that is to be observed are brought into contact under a condition for performing an imaging step. […] Measurement procedures for the half-life are as below. […] Ndissociation is a cumulative relative frequency of a probe that dissociated. A cumulative relative frequency is a ratio of the speckles that disappeared within a given period of time to the total number of measured speckles (i.e. probes) (i.e. probes that dissociated within a given period of time), and represents the total number as 1. Then, by fitting the above complementary cumulative relative frequency function with an exponent function, that half-life is calculated.
The measurement of binding half-life, whose result is shown in table 1, was performed in the following procedures. Speckle images of 10000 frames picked up in the localization test were used in order to measure a period of time between the appearance of a probe that has bound to a target in a speckle image and disappearance through dissociation in a semi-manual mode by using Speckle TrackerJ, an ImageJ plug-in. In case of for example picking up of images with an exposure time of 50 ms and at a frame rate of 20 Hz, it is assumed that a period of time between the appearance and disappearance of a speckle that is observed in only one of consecutive frames is 50 ms and a period of time between the appearance and disappearance of a speckle observed in only two consecutive frames is 100 ms. […] Ndissociation is a cumulative relative frequency of probes that dissociated. Then, by fitting the complementary cumulative relative frequency function with an exponent function, the half-life was calculated. However, the binding half-life with respect to an actin filament of Atto488-Lifeact was measured by using a method that is described in detail in the section for FIG. 9 in the Brief Description of the Drawings.

The subject of assay [4] is microtubule. Put plainly: Localization test of probe candidates (integrated SiMS images). The conditions noted are these: fixed, permeabilized XTC cell; lysate supernatant of EGFP fused probe; TIRF, 10000 frames. Also on record: key: “localization” is positive (P) when above criterion (1) is met. The assay is classed as cell-based, Xenopus laevis. On the procedure:
(§5) HEK (Human embryonic kidney)-293F cells were transfected with a plasmid encoding a probe candidate protein tagged with FLAG-EGFP or 3×FLAG-EGFP. […] Centrifugal separation was performed on the lysate and the supernatant liquid was collected. In order to perform screening for a probe for IRIS, the binding capacity of a probe candidate in the supernatant liquid with respect to the structure of an XCT cell that was fixed with paraformaldehyde (PFA) and that received a permeabilization process was tested. The appearance and disappearance of single molecule speckles (Single-molecule speckles, SiMS) in the structure was tested. Screening was performed for a probe for IRIS in accordance with the following criteria:
(§6) (1) It is possible to confirm a distribution of target substances in the structure in an image resulting from adding SiMS images;
(§7) The localization test of the above (1), whose result is shown in table 1, was performed in the following procedures. First, the supernatant liquid of lysate of a cell that expressed each probe candidate was brought into contact with an XCT cell that was fixed on a coverglass and that received a permeabilization process. […] The obtained speckle images of 10000 frames were integrated so as to confirm whether or not a distribution of target substances in the cell (microtubule, intermediate filament, focal adhesion or actin filament) was able to be confirmed. When a distribution of a target substances was able to be confirmed, the result of the localization test was treated as P (positive).

Assay [5] relates to focal adhesion. Put plainly: Washability test of probe candidates. The format is cell-based, Xenopus laevis. The arrangement: key: “washability” is positive (P) when above criterion (2) is met. As to conditions: speckles equal to or less than about 10% after switching imaging solution 10 to 20 times. As to the method:
as §1, §2

The test system of assay [6] is focal adhesion. Nature of the assay: IRIS image test (reconstruction image). The format is cell-based, Xenopus laevis. Also on record: key: “IRIS image” is positive (P) when above criterion (3) is met. The conditions noted are these: reconstruction from 10000 frames with DAOSTORM
As to the method:
as §3

Assay [7] has as its system focal adhesion. Put plainly: Measurement of binding half-life of probe-target complex. The arrangement: species or system Xenopus laevis. As to conditions: fixed XTC cell, single exponential fit.
Excerpt: as §4
The measurement of binding half-life, whose result is shown in table 1, was performed in the following procedures. […] Then, by fitting the complementary cumulative relative frequency function with an exponent function, the half-life was calculated. However, the binding half-life with respect to an actin filament of Atto488-Lifeact was measured by using a method that is described in detail in the section for FIG. 9 in the Brief Description of the Drawings.

Assay [8] has as its system focal adhesion. Nature of the assay: Localization test of probe candidates (integrated SiMS images). The format is cell-based, Xenopus laevis. The arrangement: key: “localization” is positive (P) when above criterion (1) is met. The conditions noted are these: fixed, permeabilized XTC cell; lysate supernatant of EGFP fused probe; TIRF, 10000 frames. On the procedure: as §5, §6, §7

B1: MAP4 659-908: EGFP fused (N terminus) mouse MAP4 fragment, amino acid residues 659-908 of sequence number 4 (protein, UniProt P27546 659-908, looked up, fragment)
chain: PPNKEPPPSPEKKAKPLATTQPAKTSTSKAKTQPTSLPKQPAPTTSGGLNKKPMSLASGSVPAAPHKRPAAATATARPSTLPARDVKPKPITEAKVAEKRTSPSKPSSAPALKPGPKTTPTVSKATSPSTLVSTGPSSRSPATTLPKRPTSIKTEGKPADVKRMTAKSASADLSRSKTTSASSVKRNTTPTGAAPPAGMTSTRVKPMSAPSRSSGALSVDKKPTSTKPSSSAPRVSRLATTVSAPDLKSV
modifications: N-terminal EGFP fusion
B1: in the assay with microtubule [1], the WASHABILITY result was “P”. Further, the “IRIS IMAGE” value in the assay with microtubule [2] is given as “P”. Further, the HALF-LIFE with microtubule [3] was found to be 0.106 s. For the same molecule, the LOCALIZATION entry with microtubule [4] was “P”.

B2: Paxillin 167-557: EGFP fused (N terminus) human Paxillin fragment, residues 167-557 of sequence number 15 (protein, UniProt P49023 167-557, looked up, fragment)
chain: ANSSPPLPGALSPLYGVPETNSPLGGKAGPLTKEKPKRNGGRGLEDVRPSVESLLDELESSVPSPVPAITVNQGEMSSPQRVTSTQQQTRISASSATRELDELMASLSDFKIQGLEQRADGERCWAAGWPRDGGRSSPGGQDEGGFMAQGKTGSSSPPGGPPKPGSQLDSMLGSLQSDLNKLGVATVAKGVCGACKKPIAGQVVTAMGKTWHPEHFVCTHCQEEIGSRNFFERDGQPYCEKDYHNLFSPRCYYCNGPILDKVVTALDRTWHPEHFFCAQCGAFFGPEGFHEKDGKAYCRKDYFDMFAPKCGGCARAILENYISALNTLWHPECFVCRECFTPFVNGSFFEHDGQPYCEVHYHERRGSLCSGCQKPITGRCITAMAKKFHPE
modifications: N-terminal EGFP fusion
For the molecule B2, the WASHABILITY entry with focal adhesion [5] is on record as “P”. Besides, the “IRIS IMAGE” value in the assay on focal adhesion [6] is on record as “P”. This molecule registered an HALF-LIFE in the assay with focal adhesion [7] of 0.138 s. Besides, the LOCALIZATION result in the assay with focal adhesion [8] is “P”.

B3: Paxillin 54-498: EGFP fused (N terminus) human Paxillin fragment, residues 54-498 of sequence number 15 (protein, UniProt P49023 54-498, looked up, fragment)
chain: SSEALNGTILDPLDQWQPSSSRFIHQQPQSSSPVYGSSAKTSSVSNPQDSVGSPCSRVGEEEHVYSFPNKQKSAEPSPTVMSTSLGSNLSELDRLLLELNAVQHNPPGFPADEANSSPPLPGALSPLYGVPETNSPLGGKAGPLTKEKPKRNGGRGLEDVRPSVESLLDELESSVPSPVPAITVNQGEMSSPQRVTSTQQQTRISASSATRELDELMASLSDFKIQGLEQRADGERCWAAGWPRDGGRSSPGGQDEGGFMAQGKTGSSSPPGGPPKPGSQLDSMLGSLQSDLNKLGVATVAKGVCGACKKPIAGQVVTAMGKTWHPEHFVCTHCQEEIGSRNFFERDGQPYCEKDYHNLFSPRCYYCNGPILDKVVTALDRTWHPEHFFCAQCGAFFGPEGFHEKDGKAYCRKDYFDMFAPKCGGCARAILENYISALNTLWHPE
modifications: N-terminal EGFP fusion
B3: the WASHABILITY result in the assay with focal adhesion [5] is “P”. Also, in the assay on focal adhesion [6], the “IRIS IMAGE” value was “P”. The same molecule gave an HALF-LIFE in the assay with focal adhesion [7] of 0.091 s. Moreover, the LOCALIZATION result in the assay with focal adhesion [8] is recorded as “P”.
